Experimental data from publication PMC7889895, “Crystal structure of a photosynthetic LH1-RC in complex with its electron donor HiPIP” (Nature Communications, 2021).

Target: light-harvesting 1 - reaction center complex (LH1-RC) of Thermochromatium tepidum (Thermochromatium tepidum, UniProt D2Z0P5 23-404; D2Z0P3 1-281; A8ASG6 1-325; D2Z0P9 1-259; D2Z0P2 1-61; D2Z0P1 …)
Assay: crystal structure; co-crystal by micro-batch under oil; HiPIP:LH1-RC mixed 15:1, LH1-RC 0.0694 mM; 30 mM sodium succinate pH 5, 20 mM CaCl2, 3.4% OPC, 30% PEG 1500; 20 °C; 2.9 Å
Details: both partners purified

B1: high-potential iron-sulfur protein (HiPIP) of Thermochromatium tepidum (natural protein, UniProt P80176 1-83, looked up)
chain: AAPANAVTADDPTAIALKYNQDATKSERVAAARPGLPPEEQHCANCQFMQANVGEGDWKGCQLFPGKLINVNGWCASWTLKAG
notes: High-potential iron-sulfur protein (HiPIP), Thermochromatium tepidum strain MC, native protein with its 4Fe-4S cluster, purified in the reduced state; Carries a 4Fe-4S cluster; also called Tch. tepidum HiPIP; source: purified from Tch. tepidum strain MC (soluble fraction of sonicated cells, DEAE column)
stoichiometry N: 1 HiPIP per LH1-RC
